For 21 sequences, protein production results are on record in a protein production outcome set (Wang et al. 2014).

The series in a line: label from the status in PepcDB records.

Regarding “MIKVLIFFGIILLGLCISPWIVGNTGYVYIAAGDYQLETSLAFGIIMLIVFYALFQVLEWLVITVINLLLRSRFIPHQWRRRSAKKHTLMGALAIAEEDWPAAERAMIKGADNGELPALNLLAAARAAQHQNKTAERDQYLARAETQPLAANAVATTRTRYLLKQGEFTLARAELDKLAPTSKSKAPVLKLALELYRAQQDWEALKLLLPILKKRQILDDIQLNSLSVETHSALLQTASLKGEDALEQCWQWLSRDERNQSEFLAIYTMGLCRFNRKEQAIKLLSKKLRSSPESALLEVIPQIVTAHDTDIRKQLLKHEITHENNADYQRCLALLYQQTRDMKEAKTCWQNVCRIAPTKDSWLSLARIQEQLGEQGHANQSYRQAVTL”, the protein production entry is on record as “failed”. Consider “MIKVNVMYPYTEGARFDHAYYCDRHMPMVKARLGSACAYYTVEKGLAGSASGAPPAFVAMCAFICDSAENFYAAMYYHGAEILGDIANYTDIAPVLQISEVVVERSDR”, for which the protein production entry was “not failed”. On to “MILAVLFANSVGNVLIERFNGVPAEERLHWRSFLVKLGADNLKGVKNEELLVACHKSVYIVYTMLGDVSIFLVGKDEYDELALAETIYIITAAVKDVCGKPPTERVFLDKYGRICLCLDEIVWNGLLENTDKDRIKRLIRLKPPSEV”, for which the protein production entry is reported as “failed”. Next, “MILCYGDNNIMMDIYKEIKEEMKKVYLSRDCCFVGYSGGKDSSAMLTLLWDAIAELPLEERTNPIHILTSEVGVETPAMTAYISRTLQKIQEKANEQNLPFVVHGVKPLMKESYWYKVIGRGVLPPSGNSRLRWCTDSLKVKPMQRKMKEILIASQTTTAVECFDEYDGVLMLAVRNEESARRRHSIQKHEISNDSLFSRHNDMKNILCFNPVKFLTGDEVWMLLLDRGI”: “failed”; “MILFDGMYSLGGVILSLLALMGSIYINKKDYEKYPFGKKMIEPLIVIIKSLAIFIMCIYSLTGSIKDLINGGNEVQYGYALIYALISTLGCGIAYFFLKKKGKAINSSLINIESSQWLMDALLSMGVLVGFLIANIIKHTEFIWFNRYLDPLMVIICSSVFIKMPIKSFGDGLKELLEFKADDSITLEIDKLVEGIEREYNFEDTITRVSKTGNDLRIEIDFIYNEESNIKALDEMDSLREKIFNSLSHINYEKWLNVSFTKDKKWAI”: “failed”. For “MILGEIMEVLAFKNQSLIDHVNDMVKYWERIKYRYLKTIKRALEALNIKLDIEKVDEFMKILIKLHDIGKASKIYQRAIINDQEKLMGFRHELVSAYYTYHILLKKFGDKNLAFIGALTVMLHHEPIIMGQIRNLKKKELTAEVVLDKLKKFDGMIEDFEDLIKKLIGYSIGDIIKNDSNKDDIIRFVIEMSVRARHTPNSEKLRFIVGTLLLPLVMCDYKGAESREGKAPKFAEVLEVESYVI” the value was “not failed”.

“MILINKRAEKQDYQTILAIWEKSVIVTHDFLTAEDRQFYKEQIPLFLDNVELFLWFAGEEVIGFSGTSERELDMLFLDPVATGNGYGSQILGWLIENKRINLVDVNEQNENATRFYLKHGFVVSSRSDLDGFGKPYPILQLQLKERVNGV”: the protein production entry was “not failed”.

For “MILINLFITFLKIGLLNFGGGNGIAAIINNEIINNKHWITKEEFVNMITISRITPGPIATNIATYVGMKTAGIAGAIIATVALITAPIIIMIIILLILHKIGFLNYCLENLKPIIVALWIITIIILLENTYLKIENNKTELLKTLAIVGINFFILFFYNKISPALVIILSGFFYTLI”, the protein production entry is recorded as “failed”. For “MILQDARIDVPYTVVSINLPEDSVRHLSNLGLKVGSRLELISKTKSSAIVMLKSSRLAFDDSILSKIDVSESQETVETLPLSELEVGQFAYIDNIFAVNEAKRRLMDMGLTRHTKIYLRKVAPLGDPIEISLRGYELTLRKSEAQMISVVKIDNQEEKLEHHHHHH” the value was “not failed”; for “MILSQQKYNYLAKVSDSNGVISALAFDQRGALKCLMAQYQMKEPTVAQMEELKVLVSEELTPYASSILLDPEYGLPAAQARDREAGLLLAYEKTGYDANTTSRLPDCLVDWSIKRLKEAGADAVKFLLYYDVDGDPQVNVQKQAYIERIGSECQAEDIPFFLEILTYDETISNNSSVEFAKVKVHKVNDAMKVFSAERFGIDVLKVEVPVNMVYVEGFAEGEVVYSKEEAAQAFREQEASTDLPYIYLSAGVSAELFQETLVFAHKAGAKFNGVLCGRATWAGSVQVYMEEGKEAARQWLRTSGLQNINELNKVLKTTASPWTEKVSVG”, “not failed”; for “MIMINKTKRLMVSRQVKIPRKTYFWGPTPNPGMHPKDQSVTLLSIIRDYLKLSDKEREAARILANGLVKVDGKTVREKKFAVGFMDVIEINGESYRVVYNDQGALVLMKETKERASMKLLKVRSKVIAPGNRIQLGTHDGRTFITDDKSKKVGDVWAVSVPDMKISEIIKMQPGNKAYITAGSHVNQTGTISKIEAKEGSSANLVHFQEGFSTIKDHVFMIGSSKFSFVLSPEEVIPLEHHHHHH”, “not failed”. With “MIMMENDRISDFFIVAFIFSWVLWIPVAMVSAGFSFPQPLQAFLESPYNPAAFGPTLAAVLLSYRYGGRDELLALLRKGVNYDFHRIWWPVILLFFPVLTAVALYLGVLWGDPQPYLYWTSQPLMVIMVFIYIFFLGGPLQEEFGWRGYALPRLQRRYSPIYAALIIGFIWGLWHIPLFFIGGSIQSQVPFWSFMILIISASVIYTWVYNSTGSILATMIIHTTGNLSYFLFPVQGTLAGGIFLMILNVAAALAVMLFAGSELKTDFGGQGH”, the protein production entry is reported as “failed”.

As for “MIMNKIKKILKFCTLKKYDTSSALGREQERYRIISLSVISSLISKILSLLSLILTVSLTLPYLGQERFGVWMTITSLGAALTFLDLGIGNALTNRIAHSFACGKNLKMSRQISGGLTLLAGLSFVITAICYITSGMIDWQLVIKGINENVYAELQHSIKVFVIIFGLGIYSNGVQKVYMGIQKAYISNIVNAIFILLSIITLVISSKLHAGLPVLIVSTLGIQYISGIYLTINLIIKRLIKFTKVNIHAKREAPYLILNGFFFFILQLGTLATWSGDNFIISITLGVTYVAVFSITQRLFQISTVPLTIYNIPLWAAYADAHARNDTQFIKKTLRTSLKIVGISSFLLAFILVVFGSEVVNIWTEGKIQVPRTFIIAYALWSVIDAFSNTFASFLNGLNIVKQQMLAVVTLILIAIPAKYIIVSHFGLTVMLYCFIFIYIVNYFIWYKCSFKKHIDRQLNIRG”, the protein production entry was “failed”. For “MIMRKFASRVKDIQLSEIRKIFEVADEDTINLGIGEPDFSVPDHVREAVKDAVDEGLTHYTSNMGMEELREAIADKLKSENRVHAEPESIIVTVGASEAIFMCTQALLDIGDHALIPDPGFLSYDACVRLSGAVSIPVPLSMDEGFSMSPERVESLITQDTRVIIMNSPSNPTGSVMGKDDVKGIAEIAEDNDLIIISDEIYEKIIYDGKHYSPAQFTDNALIVNGFSKTYAMTGLRIGYVAGCEDIIEELLKVHQYNTACAPSISQYAALAAIRGPQNCVKDMVDEFRRRRDLMFRSLTDMGLECVLPGGAFYMFPYAGDSEEFTKLSLEAGVAVVPGSAFGNEGKGYIRMSYATSYELIEEAMERLKTVCGV” the value was “failed”; for “MINARGETMARFTVVIPYYQKQHGVLGRALASVFAQTYQDFDLVIVDDESPYPIDQELAEISQEQKDRIVVIKQANAGPGGARNTGLDHVPDGTDYVAFLDSDDMWTPDHLRNAAFALNTYGGECYWASMQASDEFYYHFAISELEKNEGAARLSEKPLVIELPDLASVMLRNWSFLHLSCMVIGRPLFEKIRFDPALRLAAEDVLFFCDSILASKRTLLCDDAGAMRGMGVNIFHSIDNTSPEFLRQQFNTWVALDTLEGRFSRRPADVASIASYKNTARKQALWSQAGNLKRRRAPQFGLLFKWAMRDPALLRAAFELGAGKIVRSRLEHHHHHH”, “failed”; for “MINEQRLLNTFLELVQIDSETGNESTIQPILKEKFIALGLDVKEDEAAKHPKLGANNLVCTMNSTIEEGEVPKLYLTSHMDTVVPAINVKPIVKDDGYIYSDGTTILGADDKAGLAAMLEVLQVIKEQQIPHGQIQFVITVGEESGLIGAKELNSELLDADFGYAIDASADVGTTVVGAPTQMLISAKIIGKTAHASTPKEGVSAINIAAKAISRMKLGQVDEITTANIGKFHGGSATNIVADEVILEAEARSHDPERIKTQVKHMTDVFETTASELGGKAEVTVEQSYPGFKINDNEAVVKIAQESARNLGLSANTIISGGGSDGSIINTFGIPSVILGVGYEKIHTTNERMPIKSLNLLASQVLEIIKIVARQSK”, “not failed”. For “MINLVEFNLFLDLLGSALLLSLPWLLLGIIISSTFLIWTDEQKWVANFPRNRLLSSLVGSALGFLLPLGAFGSVPLVRRLLLQGAPIPLAVSFLVAAPTLNIFAIVRVLSSRQSQYGLIFLCISCSWLMAIVMGLVFSTYRLARQQAEDEGETALLNIPLLRSGALIILQSSMEASPRQGGLVFASGVNPVADFSWRQKLHLFGRNIIEEFQEFGGVLVIGTAIACGIVFFLPQAWLLQWAGLGPVRQTVLMMGWSFILPLGNFSNPDLLAPLGEQLWRGSMVAFLLWGSLFNLQTIGLWLVTLRLRPLSYLVVLVGLSVFLFAMVTNYYLS” the value was “failed”. For “MINMKPQYYLGMMSGTSLDGVDIVLVDFSQDPQLILSDFFPMPEDLREKLTTLIQVGETTLQNLGELDHKLALLYSDCVNAFLQKNTFLPNQIQAIGCHGQTVWHSPNSQFPFTMQLGDMNLLAAKTGISVIGDFRRKDMAWGGQGAPLVPAFHEAVFSNSNFATAVLNIGGISNVSILFPNQAVIGFDTGPGNTLLDQWIEKHQGLRYDENGEWAAKGNVNKVLLDELLNEPFFSLPAPKSTGRELFNLVWLNHKIAKIREKLTALSVEMSFRPEDVQATLVELTVTSIVNALNQLQTDLPKRLLVCGGGAKNSLIMRGLHDNLLDWQVSTTTEQGFDIDYVEAAAFAWLAYCRINNLPANLPSVTGAKSAVSLGAIFPKD” the value was “failed”; for “MINQNATYMEESAQSAVDNFGLGFNLGNTLDANGCGTGKPVATYETFWGQPETTQDMMTFLMQNGFNAVRIPVTWYEHMDAEGNVDEAWMMRVKAIVEYAMNAGLYAIVNVHHDTAAGSGAWIKADTDVYAATKEKFKKLWTQIANALADYDQHLLFEGYNEMLDGNNSWDEPQKASGYEALNNYAQDFVDAVRATGGNNATRNLIVNTYAAAKGENVLNNFMLPTDAVNNHLIVQVHSYDPWNFFNTKTTWDSECHNTLTEIFSALSKKFTTIPYIIGEYGTHGESDISVSKSSPAEKIKLAADQAADMVKLAKDHHSATFYWMSIFDGSDRIQPQWSLPTVVEAMQEAYNN”, “not failed”; for “MIPDLVPVSLTPVTVVPNTVNTMTATIENQGNKDSTSFNVSLLVDGIVVDTQTVTSLESENSTNVDFHWTLDGTANSYTLTVNVDPENAVNEGNESNNTLTALVGTLEHHHHHH”, “not failed”. For the sequence “MIPEHLSIYTAYNANIDAIVKLNQETIQNLINAFDPDEVKRRIEEYPREINEPIDFVARLVHTLKLGKPAAVPLVNEKMNEWFDKTFRYEEERLGGQAGIIANTLAGLKIRKVIAYTPFLPKRLAELFKKGVLYPVVENGELQFKPIQEAYREGDPLKINRIFEFRKGLKFKLGDETIEIPNSGRFIVSARFESISRIETREDIKPFLGEIGKEVDGAIFSGYQGLRTKYSDGKDANYYLRRAKEDIIEFKEKDVKIHVEFASVQDRKLRKKIITNILPFVDSVGIDEAEIAQILSVLGYRELADRIFTYNRLEDSILGGMIILDELNFEILQVHTTYYLMYITHRDNPLSEEELAKSLEFGTTLAAARASLGDIRGPDDYKVGLKVPFNERSEYVKLRFEEAKSRLRMREYKVVVIPTRLVQNPVLTVGLGDTISAGAFLTYLEFLKRH”, the protein production entry is “not failed”.
